Measurements: patent US10912815B2, “Inhibitors of mitochondrial fission and methods of use thereof” (The Board of Trustees of the Leland Stanford Junior …, priority 2011, dated 2021)
No end group written: not given here.

Columns and labels:
Drp1/Fis1 interaction = Drp1/Fis1 interaction (Homo sapiens, UniProt O00429); assay: Direct binding between recombinant Drp1 and Fis1 (immunoprecipitation); settings: peptides 1 μM each, Drp1 50 ng, Fis1 50 ng, FIG. 2D
Description: In another set of experiments, Drp1 was incubated with Fis1 and the complex was immunoprecipitated using anti-Drp1 antibody followed by immunoblotting with anti-Fis1 antibody. For direct binding between Drp1 and Fis1, recombinant Drp1 (50 ng) and Fis1 (50 ng) were incubated in PBS containing 1 mM DSP for 30 min in the presence or absence of Drp1/Fis1 peptides (1 μM each) or control peptide TAT. After termination of the reaction by 50 mM Tris-HCl, pH 7.5, reaction mixtures were subjected to immunoprecipitation with anti-Fis1 antibody in the presence of 1% Triton X-100. Immunoprecipitates were washed with PBS containing 1% Triton X-100 and analyzed by SDS-PAGE and subsequent immunoblotting with antibodies to Fis1 and Drp1.

Mfn1 = target: T1, Mfn1 (Homo sapiens, UniProt Q8IWA4); assay: In vitro GTPase assay, recombinant Mfn1; format: biochemical; settings: recombinant Mfn1 25 ng, FIG. 2B
T1 sequence (Q8IWA4 1-741): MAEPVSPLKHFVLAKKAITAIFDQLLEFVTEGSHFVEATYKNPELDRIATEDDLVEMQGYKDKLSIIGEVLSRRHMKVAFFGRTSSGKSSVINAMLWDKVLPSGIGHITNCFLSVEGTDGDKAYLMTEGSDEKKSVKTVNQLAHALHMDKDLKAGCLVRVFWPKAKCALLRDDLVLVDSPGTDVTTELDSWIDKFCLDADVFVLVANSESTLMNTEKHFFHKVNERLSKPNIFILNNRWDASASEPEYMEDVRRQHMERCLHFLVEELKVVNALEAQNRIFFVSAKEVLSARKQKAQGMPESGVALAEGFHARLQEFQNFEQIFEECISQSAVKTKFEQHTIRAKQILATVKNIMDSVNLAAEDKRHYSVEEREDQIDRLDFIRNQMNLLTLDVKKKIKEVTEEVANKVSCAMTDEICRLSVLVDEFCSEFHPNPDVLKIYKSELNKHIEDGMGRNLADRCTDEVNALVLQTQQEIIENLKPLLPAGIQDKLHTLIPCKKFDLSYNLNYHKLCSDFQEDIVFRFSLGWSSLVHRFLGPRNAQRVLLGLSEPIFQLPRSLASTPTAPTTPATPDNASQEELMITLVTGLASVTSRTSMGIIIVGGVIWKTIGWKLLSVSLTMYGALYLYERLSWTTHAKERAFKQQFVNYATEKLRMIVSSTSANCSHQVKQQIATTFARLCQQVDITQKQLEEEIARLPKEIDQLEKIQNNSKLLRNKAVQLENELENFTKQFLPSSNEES
Description: (§1) First, mitochondrial fission inhibitor constructs were tested to determine what, if any, effects each peptide had on enzyme (GTPase) activity. Recombinant protein Drp1, Mfn1, OPA1 or dynamin-1 (25 ng) was incubated with the indicated modulator peptides for 30 min. GTPase activity was assayed in vitro using a GTPase assay kit (Innova Biosciences, Littleton, USA, or Novus Biologicals, Littleton, Colo.) according to manufacturer's instructions.

OPA1 = target: T2, OPA1 (Homo sapiens, UniProt O60313); assay: In vitro GTPase assay, recombinant OPA1; format: biochemical; settings: recombinant OPA1 25 ng, FIG. 2B
T2 sequence (O60313 88-960): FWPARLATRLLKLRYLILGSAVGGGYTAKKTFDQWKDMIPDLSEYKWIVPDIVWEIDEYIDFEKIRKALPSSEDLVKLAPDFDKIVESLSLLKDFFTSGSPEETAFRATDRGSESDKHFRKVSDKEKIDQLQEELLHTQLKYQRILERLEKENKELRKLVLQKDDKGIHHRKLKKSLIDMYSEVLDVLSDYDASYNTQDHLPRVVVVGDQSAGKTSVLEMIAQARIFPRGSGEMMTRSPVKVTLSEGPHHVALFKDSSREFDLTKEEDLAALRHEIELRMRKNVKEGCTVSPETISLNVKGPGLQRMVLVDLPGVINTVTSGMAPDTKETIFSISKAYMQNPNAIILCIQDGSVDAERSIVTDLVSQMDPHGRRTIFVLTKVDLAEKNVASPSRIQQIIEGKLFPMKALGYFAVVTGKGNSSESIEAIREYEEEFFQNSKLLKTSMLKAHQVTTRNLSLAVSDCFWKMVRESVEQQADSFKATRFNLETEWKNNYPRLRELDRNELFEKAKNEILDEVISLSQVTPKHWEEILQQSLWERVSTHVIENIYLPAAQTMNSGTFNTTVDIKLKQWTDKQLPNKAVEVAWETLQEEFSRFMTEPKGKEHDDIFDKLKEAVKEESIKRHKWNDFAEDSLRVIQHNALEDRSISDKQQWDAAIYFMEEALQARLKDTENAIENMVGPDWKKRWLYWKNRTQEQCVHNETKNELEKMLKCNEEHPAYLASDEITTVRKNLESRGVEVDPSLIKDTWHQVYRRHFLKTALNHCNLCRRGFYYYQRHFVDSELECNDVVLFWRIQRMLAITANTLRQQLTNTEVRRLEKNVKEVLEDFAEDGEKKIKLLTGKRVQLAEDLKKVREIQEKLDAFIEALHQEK
Description: as §1

Sequence of Drp1/Fis1 interaction (O00429 1-710 isoform O00429-3): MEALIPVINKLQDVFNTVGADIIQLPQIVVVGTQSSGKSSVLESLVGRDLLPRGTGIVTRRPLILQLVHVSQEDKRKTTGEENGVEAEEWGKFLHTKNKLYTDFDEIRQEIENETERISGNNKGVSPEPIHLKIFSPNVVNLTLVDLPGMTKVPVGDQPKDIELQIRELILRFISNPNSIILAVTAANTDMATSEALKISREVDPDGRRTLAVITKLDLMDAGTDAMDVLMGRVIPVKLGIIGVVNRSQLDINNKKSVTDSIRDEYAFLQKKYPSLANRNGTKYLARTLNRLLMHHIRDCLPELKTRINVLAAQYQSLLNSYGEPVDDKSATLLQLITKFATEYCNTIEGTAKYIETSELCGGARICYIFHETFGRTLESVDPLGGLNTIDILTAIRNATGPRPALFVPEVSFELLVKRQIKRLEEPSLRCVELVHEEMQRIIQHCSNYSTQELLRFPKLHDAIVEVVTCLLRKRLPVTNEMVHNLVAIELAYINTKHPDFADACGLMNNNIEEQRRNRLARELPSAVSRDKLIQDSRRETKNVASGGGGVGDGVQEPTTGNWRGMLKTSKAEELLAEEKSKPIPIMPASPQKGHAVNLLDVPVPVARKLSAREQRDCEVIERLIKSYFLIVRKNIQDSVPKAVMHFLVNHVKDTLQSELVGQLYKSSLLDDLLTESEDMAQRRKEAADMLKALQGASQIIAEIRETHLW

RRRQRRKKRGYGGDLLPRGS (RRRQRRKKRGYGGDLLPRGS-NH2) [P110, TAT47-57 carrier, GG linker, Drp1 region 110 (GTPase domain) peptide DLLPRGS; C-terminus C(O)-NH2]
Drp1-Fis1 interaction, recombinant proteins (Drp1/Fis1 interaction): blocked
effect on GTPase activity of Mfn1 (mitofusin 1) (Mfn1): no effects
effect on GTPase activity of OPA1 (OPA1): no effects
